The values that follow come from patent US20230287096A1 (published 2023).

Assay [1] concerns the target Recombinant human FAM19A5 protein (human, UniProt Q7Z5A7 44-132). Kind of assay: ELISA. For orientation: An ELISA detects its analyte on a solid surface through an enzyme-linked reagent.
The target of assay [2] is T1, FAM19A5 epitope fragment F2, conjugated to BSA (human, conjugated to BSA).
T1 peptide: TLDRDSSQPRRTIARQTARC
Kind of assay: ELISA, BSA-conjugated peptide coated on plate. The method, then:
Overlapping peptide fragments (F1-F6, See FIG. 1) of the human FAM19A5 protein were synthesized and conjugated to BSA. Binding of the different anti-FAM19A5 antibodies to the BSA-conjugated peptide fragments F1-F6 was determined by ELISA assay. Briefly, FAM19A5 fragment F1-F6 (diluted to 1 μg/mL in 50 mM carbonate buffer (Biosesang) or to 20 μg/mL for high concentration analysis) were used to coat the wells of 96-well immuno plates (Thermo Scientific) (100 μL/well) overnight at 4° C. and then subsequently washed twice in 1×PBS. The plates were then blocked with the blocking buffer (100 μL/well) for 1 hour at room temperature. During the 1-hour incubation, the relevant anti-FAM19A5 antibodies were diluted to 1 μg/mL (or 20 μg/mL for high concentration analysis) in the diluent buffer. Once the plates were washed (2×using 1×PBS), the diluted anti-FAM19A5 antibodies were added to the appropriate wells, and the plates were incubated at room temperature for 1 hour. The plates were subsequently washed for a total of five times using the washing buffer. […] The absorption value of each of the wells was detected at 492 nm using a 96-well microplate reader (Molecular Device).

The target of assay [3] is T2, F2-01-BSA (#1) (human, conjugated to BSA).
T2 construct: also called mutant F2 peptide fragment #1
T2 peptide: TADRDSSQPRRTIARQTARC
Put plainly: ELISA, BSA-conjugated mutant F2 peptide coated on plate.

Assay [4] concerns the target T3, F2-02-BSA (#2) (human, conjugated to BSA).
T3 construct: also called mutant F2 peptide fragment #2
T3 peptide: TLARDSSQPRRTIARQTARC
The assay is described as above.

The target of assay [5] is T4, F2-03-BSA (#3) (human, conjugated to BSA).
T4 construct: also called mutant F2 peptide fragment #3
T4 peptide: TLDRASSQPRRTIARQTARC
The assay is described as above.

Assay [6] has as its target T5, F2-04-BSA (#4) (human, conjugated to BSA).
T5 construct: also called mutant F2 peptide fragment #4
T5 peptide: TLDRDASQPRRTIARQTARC
The assay is described as above.

Assay [7] deals with T6, F2-05-BSA (#5) (human, conjugated to BSA).
T6 construct: also called mutant F2 peptide fragment #5
T6 peptide: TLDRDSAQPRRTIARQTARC
Described as above.

Assay [8] has as its target T7, F2-06-BSA (#6) (human, conjugated to BSA).
T7 construct: also called mutant F2 peptide fragment #6
T7 peptide: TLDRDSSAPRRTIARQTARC
The assay is described as above.

Assay [9] concerns the target T8, F2-07-BSA (#7) (human, conjugated to BSA).
T8 construct: also called mutant F2 peptide fragment #7
T8 peptide: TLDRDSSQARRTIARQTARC
Described as above.

Assay [10] concerns the target T9, F2-08-BSA (#8) (human, conjugated to BSA).
T9 construct: also called mutant F2 peptide fragment #8
T9 peptide: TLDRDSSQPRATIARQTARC
The description is as above.

The target in assay [11] is T10, F2-09-BSA (#9) (human, conjugated to BSA).
T10 construct: also called mutant F2 peptide fragment #9
T10 peptide: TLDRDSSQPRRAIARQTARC
The assay is described as above.

In assay [12] the target is T11, F2-10-BSA (#10) (human, conjugated to BSA).
T11 construct: also called mutant F2 peptide fragment #10
T11 peptide: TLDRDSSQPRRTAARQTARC
The assay is described as above.

The target in assay [13] is T12, F2-11-BSA (#11) (human, conjugated to BSA).
T12 construct: also called mutant F2 peptide fragment #11
T12 peptide: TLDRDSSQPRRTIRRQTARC
The assay is described as above.

In assay [14] the target is T13, F2-12-BSA (#12) (human, conjugated to BSA).
T13 construct: also called mutant F2 peptide fragment #12
T13 peptide: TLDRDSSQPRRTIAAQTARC
Described as above.

The target of assay [15] is T14, F2-13-BSA (#13) (human, conjugated to BSA).
T14 construct: also called mutant F2 peptide fragment #13
T14 peptide: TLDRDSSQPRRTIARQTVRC
Described as above.

Chain of Recombinant human FAM19A5 protein (Q7Z5A7 other isoform, or with tags, fused parts or gaps): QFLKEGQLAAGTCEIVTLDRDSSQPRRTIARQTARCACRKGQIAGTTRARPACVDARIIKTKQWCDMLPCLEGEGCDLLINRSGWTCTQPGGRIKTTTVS

B1: Anti-FAM19A5 antibody 3-2 (antibody, V domains shown)
VH: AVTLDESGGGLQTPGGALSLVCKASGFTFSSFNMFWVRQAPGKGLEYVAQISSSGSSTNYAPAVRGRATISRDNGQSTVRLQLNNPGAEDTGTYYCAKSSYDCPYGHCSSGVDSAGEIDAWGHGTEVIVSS
VL: ALTQPSSVSANPGETVKITCSGGGSYAGSYYYGWYQQKAPGSAPVTLIYESNKRPSDIPSRFSGSTSGSTATLTITGVQADDEAIYYCGSWDSSNGGIFGAGTTLTVL
notes: The text reports the results for '3-2' without separating them, so one molecule is written; Only the variable domains are tied to the name; also called h3-2; m3-2
Consider B1, for which, in assay [1], the Kd is 0.12 nM. The binding result in assay [2], in assay [3], in assay [4], in [5], in [6] and in assay [7] was “binds” in each case. Besides, the binding result in assay [8], in assay [9], in [10], in assay [11], in [12] and in assay [13] was “binds” in each case. In addition, the binding result in assay [14] and in [15] was “binds” throughout.

B2: Anti-FAM19A5 antibody 2-13 (antibody, V domains shown)
VH: AVTLDESGGGLQTPGGALSLVCKASGFTFSSHGMFWVRQTPGKGLEYVAEITNDGSGTNYGSAVKGRATISRDNGQSTVRLQLNNLRAEDTGTYFCARSTYECPGGFSCWGDTGQIDAWGHGTEVIVSS
VL: ALTQPSSVSANPGETVKITCSGGSYSYGWFQQKSPGSALVTVIYWDDERPSDIPSRFSGALSGSTNTLTITGVQADDEAVYFCGTEDISGTAGVFGAGTTLTVL
notes: Chicken-derived scFv clone converted to a full antibody; also called Anti-FAM19A5 ("2-13")
Take B2: the Kd in assay [1] is roughly 2.77 nM.

B3: Anti-FAM19A5 antibody 1-28 (antibody, V domains shown)
VH: AVTLDESGGGLQTPGGALSLVCKASGFDFSDYGMGWVRQAPGKGLEWVAAIRSDGSNPSYGSAVKGRATISKDNGRSTVRLQLNNLRAEDTATYYCAKDGNGYCALDAYRSGGYSCGVYPGSIDAWGHGTEVIVSS
VL: ALTQPSSVSANLEGTVEITCSGSGYGYGWYQQKSPGSAPVTVIYQNDKRPSDIPSRFSGSKSGSTGTLTITGVQVEDEAVYYCGSEDSSTLAGIFGAGTTLTVL
notes: also called Anti-FAM19A5 ("1-28")
B3: the equilibrium dissociation constant (Kd) in assay [1] turned out to be 0.17 nM. In addition, the binding result in [3], in assay [4], in assay [6], in assay [7], in [8] and in [9] was “binds” in each case. The binding result in assay [10], in assay [11], in assay [12], in assay [13], in assay [14] and in [15] was “binds” throughout.

B4: Anti-FAM19A5 antibody 1-65 (antibody, V domains shown)
VH: AVTLDESGGGLQTPGGALSLVCKASGFTFSSYQMGWVRQAPGKGLEWVGVINKSGSDTSYGSAVKGRATISRDNGQSTVRLQLNNLRAEDTGTYFCAKGSASYITAATIDAWGHGTEVIVSS
VL: ALTQPSSVSANPGETVKITCSGGGSSGYGYGWYQQKSPSSAPLTVIYWNDKRPSDIPSRFSGSKSGSTHTLTITGVQAEDEAVYFCGNDDYSSDSGYVGVFGAGTTLTVL
notes: VL = 39 to 42)
In the case of B4, the Kd in [1] is 0.1 nM.

Usually Kd stands for a measure of binding affinity in units of concentration.
